Data published in patent US9480726B2, “Leukotoxin E/D as a new anti-inflammatory agent and microbicide” (New York University, priority 2011, dated 2016).

Key:
[1] = tested on: CCR5^+ Jurkat cells; assay: Blocking of LukE/D cytotoxicity by CCR5 antagonists, antibodies and ligands, CellTiter; type: cell-based, human; conditions: CCR5^+ Jurkat preincubated 30 minutes, then LukE/D, read 1 hour post-intoxication
Procedure: One hour post-intoxication, the viability of the cells was determined by CellTiter. […] One hour post-intoxication, the viability of the cells was determined by CellTiter. Results represent the average of triplicate samples±S.D.
To determine if targeting CCR5 blocks LukE/D, the effect of several CCR5 antagonist and ligands on the ability of LukE/D to kill CCR5^+ cells was evaluated. […] In addition, the potential of monoclonal antibodies directed against CCR5 to protect cells from LukE/D cytotoxicity was also evaluated following the experimental protocol described for the CCR5 antagonist. […] Lastly, the potential inhibitory effect of natural ligands of CCR5 was also evaluated. […] Collectively, these findings indicate that the potent cytotoxic activity of LukE/D could be blocked by employing CCR5 antagonist and/or ligands.

[2] = tested on: primary human dendritic cells; assay: LukE/D cytotoxicity towards primary phagocytes, percent death by flow cytometry; conditions: 1 hour post-intoxication
Procedure: (§1) Cells were then stained with an anti-CCR5 antibody and a viability dye prior analysis by flow cytometry. […] One hour post-intoxication, the percent death was determined by flow cytometry.
(§2) In addition to T lymphocytes, the cytotoxic activity of LukE/D towards primary human macrophages and dendritic cells was also evaluated.

[3] = tested on: primary human macrophages; assay: as above; conditions: 1 hour post-intoxication
Procedure: as §1, §2

[4] = tested on: CCR5^+ Jurkat cells; assay: Binding of GFP-fused LukE/D toxin to plasma membrane, flow cytometry; parameters: species or system human
Procedure: (§6) To elucidate the mechanism by which LukE/D utilizes CCR5 to target and kill host cells, Jurkat (CCR5^−) and CCR5^+ Jurkat (CCR5^+) cells were incubated with a GFP-fused LukE/D toxin (^GFPLukE/D) and binding of the fluorescent toxin to the plasma membrane of the cells monitored by flow cytometry.

[5] = tested on: CCR5^+ Jurkat cells; assay: LukE/D pore formation, ethidium bromide incorporation and microscopy; type: cell-based, human
Procedure: Binding of the toxin to the plasma membrane of the cells was monitored via flow cytometry. […] Pore formation was measured over-time by monitoring ethidium bromide incorporation. […] Intoxicated cells were monitored by light (top panels) and by fluorescence microscopy to determine ethidium bromide uptake. Representative images are shown.

[6] = tested on: T lymphocytes from the Δ32CCR5 donor; assay: LukE/D intoxication of primary T lymphocytes, viability by flow cytometry; conditions: T lymphocytes of Δ32CCR5 (CCR5^−) donor
Procedure: as §1
(§3) If CCR5 is the receptor of LukE/D, then primary host cells that their surfaces are decorated with CCR5 (e.g., T lymphocytes, macrophages, natural killer cells, dendritic cells, etc.) will be susceptible to LukE/D mediated cell death. To investigate this in more detail, primary human peripheral blood mononuclear cells (PBMC) were isolated from a wild type CCR5 (CCR5^+) donor and a Δ32CCR5 (CCR5^−) donor and the T lymphocytes expanded followed by intoxication with LukE/D and the viability of the cells determined by flow cytometry.

[7] = tested on: PM1; assay: LukE/D cytotoxicity, cell viability by CellTiter; type: cell-based, human; conditions: PM1 lymphocyte cell line
Procedure: (§4) Cytotoxicity was determined by a cell viability assay where indicated human immune cells lines were intoxicated with different concentrations of an equimolar mixture of LukE+LukD (LukE/D). Cell viability was monitored 1 hour post-intoxication using CellTiter, where cells treated with medium were set at 100% viable. Results represent the average of triplicate samples±S.D. FIG. 2B depicts that LukE/D kills Hut cell but not other human T lymphocyte-like cell lines. Indicated cell lines were intoxicated with different concentrations of an equimolar mixture of LukE+LukD (LukE/D) and cell viability monitored as in FIG. 2A. Results represent the average of triplicate samples±S.D.
(§5) One mechanism by which LukE/D could be blocked is by inhibiting the interaction of the toxin with its receptor. As an initial strategy to understand how LukE/D interact with host cells, a collection of human immune cell lines were incubated (“intoxicated”) with different concentrations of either individual subunits (i.e., LukE or LukD) or an equimolar mixture of LukE+LukD (LukE/D). […] Upon further investigation, it was discovered that the Hut cells employed the experiments described above have been engineered to over-express the CC-chemokine receptor 5 (CCR5), a receptor for the chemokines MIP-1α, MIP-1β, and RANTES.

[8] = tested on: Jurkat cells; assay: LukE/D cytotoxicity, cell viability by CellTiter; type: cell-based, human; conditions: 1 hour post-intoxication
Procedure: as §4, §5

[9] = tested on: Hut cells (T lymphocyte-like cells); assay: LukE/D cytotoxicity, cell viability by CellTiter; type: cell-based, human; conditions: Hut cells (over-express CCR5), 1 hour post-intoxication
Procedure: as §4, §5

[10] = tested on: H9; assay: LukE/D cytotoxicity, cell viability by CellTiter; type: cell-based, human; conditions: H9 lymphocyte cell line
Procedure: as §4, §5

[11] = tested on: Primary human T lymphocytes from CCR5^+ donor; assay: LukE/D intoxication of primary T lymphocytes, viability by flow cytometry; type: cell-based; conditions: 5.4% in media treated cells
Procedure: as §1, §3

[12] = tested on: parental CCR5^− Jurkat cells; assay: Binding of GFP-fused LukE/D toxin to plasma membrane, flow cytometry; parameters: species or system human
Procedure: as §6

[13] = tested on: THP1 cells (human monocytes); assay: LukE/D cytotoxicity, cell viability by CellTiter; type: cell-based; conditions: 1 hour post-intoxication
Procedure: as §4, §5

[14] = tested on: CCR5^+ Jurkat; assay: LukE/D cytotoxicity towards CCR5-transduced cells, CellTiter; type: cell-based, human; conditions: Jurkat transduced with CCR5 cDNA, 1 hour post-intoxication
Excerpt: FIG. 3 illustrates that the chemokine receptor CCR5 is necessary and sufficient to renders mammalian cells susceptible to LukE/D mediated cytotoxicity. Parental Jurkat (top, left) and GHOST cells (bottom, left) or these cells transduced with a CCR5 cDNA (Jurkat CCR5^+, top/right; GHOST CCR5^+, bottom/right), were intoxicated with LukE, LukD, or equimolar mixture of LukE+LukD (LukE/D). One hour post-intoxication cell viability was monitored with CellTiter, where cells treated with medium were set at 100% viable. Results represent the average of triplicate samples±S.D.
To directly determine the contribution of CCR5 for the ability of LukE/D to target and kill host cells, CCR5 was introduced into Jurkat cells by viral transduction of the CCR5 cDNA resulting in CCR5^+ Jurkat. Jurkat and CCR5^+ Jurkat cells were subsequently intoxicated with different concentrations of either individual subunits (i.e., LukE or LukD) or equimolar mixtures of LukE+LukD (LukE/D).

Cc1ccc(-c2ccc3c(c2)C=C(C(=O)Nc2ccc(C[N+](C)(C)C4CCOCC4)cc2)CCC3)cc1.[Cl-] [TAK-779]
blocking of LukE/D mediated cytotoxicity [1]: potently blocked

COC[C@@H](c1ccc(C(F)(F)F)cc1)N1CCN(C2(C)CCN(C(=O)c3c(C)ncnc3C)CC2)C[C@@H]1C [Vicriviroc]
blocking of LukE/D mediated cytotoxicity [1]: potently blocked

LukD: S. aureus Leukocidin D protein subunit, SEQ ID NOs: 12-22
cytotoxic activity (killing) [2]: not LukD potently killed
cytotoxic activity (killing) [3]: not LukD potently killed

LukE/D
binding of toxin to plasma membrane ([4]; GFP-fused LukE/D, CCR5^+ Jurkat): binds
pore formation in plasma membrane ([5]; ethidium bromide incorporation over time): forms pores
cell swelling ([5]; light and fluorescence microscopy): associated with cell swelling
LukE/D mediated cytotoxicity [6]: highly refractory
cytotoxic activity (killing) [2]: potently killed
cytotoxic activity (killing) [3]: potently killed
cytotoxicity [7]: only the Hut cells were susceptible
cytotoxicity [8]: not towards Jurkat cells
cytotoxicity [9]: exhibits cytotoxicity
cytotoxicity [10]: only the Hut cells were susceptible
cell death [11]: 34%
binding of toxin to plasma membrane [12]: not to the parental CCR5^− Jurkat cells
cytotoxicity [13]: exhibits cytotoxicity
LukE/D mediated toxicity [14]: susceptible

Maraviroc [reference compound]
inhibition of LukE/D binding to cells ([4]; CCR5^+ Jurkat pre-incubated with Maraviroc, then GFP-labeled LukE/D): potently inhibited
blocking of LukE/D mediated pore formation ([5]; pre-incubation with Maraviroc, ethidium bromide incorporation): potently blocked
blocking of LukE/D cell swelling ([5]; pre-incubation with Maraviroc, microscopy): fully blocked

RANTES: natural ligand (chemokine) of CCR5
blocking of LukE/D mediated cytotoxicity [1]: potently inhibit

B1: MIP-1β: natural ligand (chemokine) of CCR5 (protein)
chain: APMGSDPPTACCFSYTARKLPRNFVVDYYETSSLCSQPAVVFQTKRSKQVCADPSESWVQEYVYDLELN
blocking of LukE/D mediated cytotoxicity [1]: potently inhibit
